Measurements as given in publication PMC5110560, “A Wheat Cinnamyl Alcohol Dehydrogenase TaCAD12 Contributes to Host Resistance to the Sharp Eyespot Disease” (Frontiers in Plant Science, 2016).

Tests used:
[1] = substrate: COc1cc(/C=C/C=O)cc(OC)c1O; assay: purified protein; type: biochemical, Triticum aestivum; details: NADPH as co-substrate; GST fusion
[2] = substrate: COc1cc(/C=C/C=O)ccc1O; assay: purified protein; type: biochemical, Triticum aestivum; details: NADPH as co-substrate; GST fusion

B1: TaCAD12 (GST-TaCAD12) (Triticum aestivum) (protein)
chain: MAPTATAAEQSQQHTKKAVGLAALDASGHLSPLAITRRSTGDDDVVIKILYCGICHSDLHSIKNDWKNAKYPMIPGHEIAGEVTEVGKNVTKFKAGDRVGVGCMVNSCQSCESCDKGFENHCPGMIFTYNSVDRDGTRTHGGYSSMVVVHERFVVRFPDAMPLDKGAPLLCAGITVYSPMKYHGLNAPGMHLGVLGLGGLGHVAVKFGKAFGMKVTVISSSPGKKQEALERLGADAFVVSKDADEMKATMSTMDGIINTVSANVPMAPLFGLLKPNGKMIMVGLPEKPIEVPPFALVARNKTLAGSCIGGMRDTQEMLDLAAKHGVTADIEVIGAEYVNTAMERLAKADVRYRFVIDIANTLDKAAAATTE
notes: N-terminal GST fusion (pGEX-4T-1), expressed in E. coli BL21, purified; tag kept
Question: With B1 as the protein, how does the Km [1] read?
Answer: The Km was 34.18 ± 5.56 µM.

Question: And the Km [2]?
Answer: The Km was 28.91 ± 3.67 µM.
